This is an account of results in paper PMC3540032, “Comprehensive Analysis and Identification of the Human STIM1 Domains for Structural and Functional Studies” (PLoS ONE, 2013).

In the assay the target is T1, hSTIM1 S340-M490 (CAD-containing construct) (human, UniProt Q13586 340-490).
T1 construct: also called the CAD; source: E. coli Rosetta (DE3), purified (IMAC, SEC, IEX, low salt SEC)
Nature of the assay: SPR; Biacore T200; Orai1 peptide immobilised on a CM5 chip by ligand thiol coupling at 1000 RU; analytes injected at 10 µM; HBS-EP buffer (20 mM HEPES, pH 7.4, 150 mM NaCl, 3.4 mM EDTA, 0.005% Polysorbate 20), 30 µL/min. To be noted: both partners purified.

T1 sequence (Q13586 340-490): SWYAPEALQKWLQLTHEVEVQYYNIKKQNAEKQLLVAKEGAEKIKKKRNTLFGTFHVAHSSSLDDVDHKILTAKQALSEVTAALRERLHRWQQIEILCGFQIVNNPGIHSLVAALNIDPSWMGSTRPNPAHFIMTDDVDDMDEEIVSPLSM

B1: Orai1 C-terminal peptide with an extra N-terminal Cys (peptide)
peptide: CRSLVSHKTDRQFQELNELAEFARLQDQLDHRGDHPLTPGSHYA
notes: extra Cys added to the N-terminus for immobilisation via thiol coupling; The added Cys is coupled to the CM5 chip by thiol coupling, which leaves the C-terminal end free; also called Orai1 C-terminus; Orai1 C-terminal domain; source: synthetic peptide (Peptide 2.0), purified by SEC (Superdex Peptide)
For B1, the binding result is listed as “binds”.
